The text below walks through data of patent US20050038611.

In the data set the target is T1, ribosomal protein S8 (Staphylococcus aureus) (UniProt A6U3W1).
T1 sequence: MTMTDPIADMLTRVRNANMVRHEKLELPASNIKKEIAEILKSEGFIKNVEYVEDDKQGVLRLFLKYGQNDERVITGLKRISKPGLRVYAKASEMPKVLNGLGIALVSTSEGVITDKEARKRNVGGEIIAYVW
The data set is described as follows: filter. Conditions: 80 mM HEPES-KOH pH 7.6, 350 mM KOAc, 20 mM MgOAc, on ice.

On to S. aureus Helix 21 A604-U652 to G-C, for which the binding signal (fold decrease in affinity vs wild type) (apparent Kd in Table 5 not given) amounted to 10.
Consider “S. aureus Helix 21 rRNA wild type (nts 596-659 of 16S rRNA)”, for which the Kd (in general, the free concentration of one partner at which half of the binding sites on the other are occupied at equilibrium, for simple one-to-one binding) was found to be 400 nM.
